The target in experiment [1] is T1, TGR26, the rat-derived novel G protein-coupled receptor protein (rat, UniProt Q56UD9 1-329).
T1 construct: Expressed in CHO dhfr- cells from pAK-rGPR7; also called rat TGR26; TGR26 receptor
T1 sequence: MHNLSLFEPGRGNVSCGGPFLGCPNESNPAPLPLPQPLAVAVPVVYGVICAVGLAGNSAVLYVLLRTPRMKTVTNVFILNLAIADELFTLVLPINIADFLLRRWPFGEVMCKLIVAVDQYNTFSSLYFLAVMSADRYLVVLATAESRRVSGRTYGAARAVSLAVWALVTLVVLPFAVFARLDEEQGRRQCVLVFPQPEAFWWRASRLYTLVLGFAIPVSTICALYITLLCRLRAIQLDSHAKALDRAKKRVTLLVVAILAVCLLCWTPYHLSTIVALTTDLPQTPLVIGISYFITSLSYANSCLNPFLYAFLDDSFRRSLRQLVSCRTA
Nature of the experiment: competition with [125I-Tyr10]-hGPR8L (1-23) for membrane fraction of TGR26 expressing CHO cells. The protocol:
(§1) Using [¹²⁵I-Tyr¹⁰]-hGPR8L (1-23) prepared by the method described in Reference Example 15 and a cell membrane fraction prepared from TGR26 expressing cells as described in Example 6, a receptor binding assay was carried out as follows.
(§2) Cell membrane fraction prepared from TGR26 expressing cells was diluted to various concentration with assay buffer (25 mM Tris-HCl, 5 mM EDTA, 0.05% CHAPS (3-[(3-Cholamidopropyl) Dimethyl-Ammonio]-1-Propanesulfonate), 0.1% BSA, 0.5 mM PMSF, 1 μg/ml Pepstatin, 20 μg/ml Leupeptin, 4 μg/ml E-64, pH 7.4), and 200 μl each of the diluent was dispensed into polypropilene test tube (Falcon 2053). In order to determine an amount of maximum binding, 2 μl of DMSO and 2 μl of 7 nM [¹²⁵I-Tyr¹⁰]-hGPR8L (1-23) were added to the membrane fraction solution. Further, in order to determine a non-specific binding, 2 μl of 100 μM hGPR8L (1-23)/DMSO solution and 2 μl of 7 nM [¹²⁵I-Tyr¹⁰]-hGPR8L (1-23) were added to the membrane fraction solution. The reaction was done at 25° C. for 75 minutes, and the reaction mixture was filtered by suction filtration using Whatman glassfilter (GF-F) treated with polyethyleneimine. […] After filtration, a radioactivity remaining on the filter was counted using γ-counter, and an amount of specific binding was estimated by subtracting an amount of non-specific binding from an amount of maximum binding. […]

In experiment [2] the target is T1, TGR26, the rat-derived novel G …. Nature of the experiment: radioligand binding to membrane fraction of TGR26 expressing CHO cells, filtration, gamma counting. The protocol:
as §1, §2

Ends that are not written are not given here. * marks the point of attachment. 125I = [125I]*

B1: human homologue of GPR8 ligand peptide consisting of 23 residues, hGPR8L (1-23) (peptide)
peptide: WYKHVASPRYHTVGRAAGLLMGL-OH
notes: also called human GPR8 ligand (1-23)
B1 showed a half-maximal inhibitory concentration (IC50) in experiment [1] of 0.12 nM.

B2: [^125I-Tyr^10]-hGPR8L (1-23) (peptide)
peptide: WYKHVASPRY(125I)HTVGRAAGLLMGL-OH
B2: in experiment [2], the binding result is recorded as “binds”.

For the origin of these results see patent US20040029178A1, “Novel g protein-coupled receptor proteins and dnas thereof” (priority 2000, published 2004).
